According to EP2500357A2 (Abbott Laboratories, dated 2012):

Tests used:
mouse IL-1α = target: T1, mouse IL-1α (mouse, UniProt P01582 115-270); assay: cell-based or functional assay
T1 sequence (looked up): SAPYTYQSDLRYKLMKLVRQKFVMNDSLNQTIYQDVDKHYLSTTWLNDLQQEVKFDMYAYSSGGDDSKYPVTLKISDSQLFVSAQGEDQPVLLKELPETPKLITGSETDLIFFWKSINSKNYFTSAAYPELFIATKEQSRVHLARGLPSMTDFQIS

mouse IL-1β = mouse IL-1β (mouse, UniProt P10749 118-269); assay: cell-based or functional assay
human IL-18 [1] = target: T2, human IL-18 (human, UniProt Q14116 37-193); assay: cell-based or functional assay
human IL-18 [2] = target: T2, human IL-18; assay: cell-based or functional assay; remark: listed apart in the source
recombinant human IL-1α [3] = target: T3, recombinant human IL-1α (human, UniProt P01583 113-271); assay: cell-based or functional assay
T3 sequence (looked up): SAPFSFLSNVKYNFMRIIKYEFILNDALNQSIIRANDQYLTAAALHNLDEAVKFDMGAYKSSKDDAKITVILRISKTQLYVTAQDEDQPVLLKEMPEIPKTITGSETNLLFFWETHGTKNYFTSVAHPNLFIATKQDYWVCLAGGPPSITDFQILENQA

recombinant human IL-1β [4] = target: T4, recombinant human IL-1β (human, UniProt P01584 117-269); assay: cell-based or functional assay
recombinant human IL-1α [5] = target: T3, recombinant human IL-1α; assay: SPR (Biacore), hIL-1α as 1st antigen
recombinant human IL-1β [6] = target: T4, recombinant human IL-1β; assay: SPR (Biacore), hIL-1β as 1st antigen
recombinant human IL-1α [7] = target: T3, recombinant human IL-1α; assay: cell-based or functional assay; remark: listed apart in the source
recombinant human IL-1β [8] = target: T4, recombinant human IL-1β; assay: cell-based or functional assay; remark: listed apart in the source
recombinant human IL-1α [9] = target: T3, recombinant human IL-1α; assay: SPR (Biacore), hIL-1α as 2nd antigen
recombinant human IL-1β [10] = target: T4, recombinant human IL-1β; assay: SPR (Biacore), hIL-1β as 2nd antigen
human IL-12 [11] = target: T5, human IL-12 (human, UniProt P29459 23-219; P29460 23-328); assay: cell-based or functional assay
T5 sequence (looked up) 1: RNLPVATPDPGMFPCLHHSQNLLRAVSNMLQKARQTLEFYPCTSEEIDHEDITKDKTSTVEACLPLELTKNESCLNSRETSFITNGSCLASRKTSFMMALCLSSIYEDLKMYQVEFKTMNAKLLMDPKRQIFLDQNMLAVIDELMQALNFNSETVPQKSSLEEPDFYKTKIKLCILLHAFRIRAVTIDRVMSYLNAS
T5 sequence (looked up) 2: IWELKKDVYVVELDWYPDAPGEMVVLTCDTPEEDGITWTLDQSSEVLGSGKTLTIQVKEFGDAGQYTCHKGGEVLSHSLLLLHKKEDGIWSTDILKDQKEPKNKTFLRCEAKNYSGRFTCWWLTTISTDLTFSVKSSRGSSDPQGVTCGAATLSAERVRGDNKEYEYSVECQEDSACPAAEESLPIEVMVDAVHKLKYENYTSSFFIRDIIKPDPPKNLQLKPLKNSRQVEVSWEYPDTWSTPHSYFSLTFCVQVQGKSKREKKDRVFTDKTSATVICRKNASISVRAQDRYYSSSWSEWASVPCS

recombinant human IL-1β [12] = target: T4, recombinant human IL-1β; assay: cell-based or functional assay; remark: listed apart in the source
human IL-12 [13] = target: T5, human IL-12; assay: cell-based or functional assay; remark: listed apart in the source
recombinant human IL-1β [14] = target: T4, recombinant human IL-1β; assay: cell-based or functional assay; remark: listed apart in the source

Sequence of mouse IL-1β (P10749 118-269 limits assumed): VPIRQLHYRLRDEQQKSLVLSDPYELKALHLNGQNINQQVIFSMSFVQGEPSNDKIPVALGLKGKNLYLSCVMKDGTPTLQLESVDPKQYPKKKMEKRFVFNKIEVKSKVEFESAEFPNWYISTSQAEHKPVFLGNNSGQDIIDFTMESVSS

B1: mIL-1α/β DVD-Ig (bispecific antibody, mouse IgG2a, kappa)
heavy: EVQLQQSGPELVKPGTSVKMSCKTSGYTFTSYVMHWVKQKPGQGLEWIGYIIPYNDNTKYNEKFKGKATLTSDKSSSTAYMELSSLTSEDSAVYYCARRNEYYGSSFFDYWGQGTTLTVSSAKTTAPSVYPLAPQVILKESGPGILQPSQTLSLTCSFSGFSLSTYGTAVNWIRQPSGKGLEWLAQIGSDDRKLYNPFLKSRITLSEDTSNSQVFLKITSVDTEDSATYYCANGVMEYWGLGTSVTVSSAKTTAPSVYPLAPVCGDTTGSSVTLGCLVKGYFPEPVTLTWNSGSLSSGVHTFPAVLQSDLYTLSSSVTVTSSTWPSQSITCNVAHPASSTKVDKKIEPRGPTIKPCPPCKCPAPNLLGGPSVFIFPPKIKDVLMISLSPIVTCVVVDVSEDDPDVQISWFVNNVEVHTAQTQTHREDYNSTLRVVSALPIQHQDWMSGKEFKCKVNNKDLPAPIERTISKPKGSVRAPQVYVLPPPEEEMTKKQVTLTCMVTDFMPEDIYVEWTNNGKTELNYKNTEPVLDSDGSYFMYSKLRVEKKNWVERNSYSCSVVHEGLHNHHTTKSFSRTPGK
light: DIQMTQSPASLSASVGETVTITCRGSGILHNYLVWYQQKQGKSPQLLVYSAKILADGVPSRFSGSGSGTQYSLKINSLQPEDFGSYYCQHFWSTPFTFGSGTKLEIKRADAAPTVSIFPPSIVMTQTPKFLLVSAGDRVTITCKASQSVNHDVAWYQQMPGQSPKLLIYFASNRYTGVPDRFTGSGYGTDFTFTISTVQAEDLAVYFCQQDYSSPYTFGGGTKLEIKRADAAPTVSIFPPSSEQLTSGGASVVCFLNNFYPKDINVKWKIDGSERQNGVLNSWTDQDSKDSTYSMSSTLTLTKDEYERHNSYTCEATHKTSTSPIVKSFNRNEC
Mouse IL-1α
  IC50, in vitro potency (assay not described): 2 nM
Mouse IL-1β
  IC50, in vitro potency (assay not described): 0.8 nM

B2: ABT325 (anti-human IL-18 mAb) (antibody, V domains shown)
VH: EVQLVQSGTEVKKPGESLKISCKGSGYTVTSYWIGWVRQMPGKGLEWMGFIYPGDSETRYSPTFQGQVTISADKSFNTAFLQWSSLKASDTAMYYCARVGSGWYPYTFDIWGQGTMVTVSS
VL: not shown
Human IL-18 [1]
  Potency (IC50), KG-1 bioassay (IL-18): 0.0687 nM
Human IL-18 [2]
  IC50, KG-1 bioassay (IFN-γ production): 0.3 nM

B3: hIL-1a/bDVD1-Ig (bispecific antibody, human IgG1, kappa)
heavy: not shown
light: NIVLTQSPASLAVSLGQRATISCRASESVDSYGNSYMHWYQQKPGQPPKLLIYLASNLESGVPARFSGSGSRTDFTLTIDPVEADDAATYYCQQNNEDPFTFGSGTKLEIKRNIQMTQTTSSLSASLGDRVTISCRASQDISNCLNWYQQKPDGTVKLLIYYTSRLHSGVPSRFSGSGSGTDYSLTISNLEQEDIATYFCQQGKTLPYAFGGGTKLEINRTVAAPSVFIFPPSDEQLKSGTASVVCLLNNFYPREAKVQWKVDNALQSGNSQESVTEQDSKDSTYSLSSTLTLSKADYEKHKVYACEVTHQGLSSPVTKSFNRGEC
notes: No linker between the variable domains; also called hIL-1α/βDVD1-Ig
Recombinant human IL-1α [3]
  Potency (IC50), MRC-5 bioassay: 2.3 nM
Recombinant human IL-1β [4]
  Potency (IC50), MRC-5 bioassay: 3.1 nM
Recombinant human IL-1α [5]
  Stoichiometry hIL-1α:DVD-Ig: 2.3
Recombinant human IL-1β [6]
  Stoichiometry hIL-1β:DVD-Ig: 1.5
Recombinant human IL-1α [7]
  dual-inhibition activity, IL-8 synthesis by MRC-5 cells with both IL-1α and IL-1β present: 2.2 nM
  neutralizing activity against hIL-1α relative to the chimeric Abs: 3 fold
Recombinant human IL-1β [8]
  dual-inhibition activity, IL-8 synthesis by MRC-5 cells with both IL-1α and IL-1β present: 2.2 nM
Recombinant human IL-1α [9]
  Stoichiometry hIL-1α:DVD-Ig: 1.1
Recombinant human IL-1β [10]
  Stoichiometry hIL-1β:DVD-Ig: 1

B4: DVD1812LL (anti-IL12/IL18 DVD-Ig) (bispecific antibody, human IgG1, kappa)
heavy: not shown
light: EIVMTQSPATLSVSPGERATLSCRASESISSNLAWYQQKPGQAPRLFIYTASTRATDIPARFSGSGSGTEFTLTISSLQSEDFAVYYCQQYNNWPSITFGQGTRLEIKRTVAAPSVFIFPPQSVLTQPPSVSGAPGQRVTISCSGSRSNIGSNTVKWYQQLPGTAPKLLIYYNDQRPSGVPDRFSGSKSGTSASLAITGLQAEDEADYYCQSYDRYTHPALLFGTGTKVTVLGTVAAPSVFIFPPSDEQLKSGTASVVCLLNNFYPREAKVQWKVDNALQSGNSQESVTEQDSKDSTYSLSSTLTLSKADYEKHKVYACEVTHQGLSSPVTKSFNRGEC
Human IL-18 [2]
  Potency (IC50), KG-1 bioassay (IFN-γ production): 0.078 nM
Human IL-12 [11]
  Potency (IC50), IL-12-induced IFN-γ production by PHA blast cells: 0.118 nM

B5: murine anti-hIL-1β mAb 13F5.G5 (antibody, V domains shown)
VH: QVQLQQSGAELVRPGSSVKISCKASGYAFSSYWMNWVKQRPGQGLEWIGQIYPGDGDTNYNGKFKGKATLTADKSSSTSYMQLSGLTSEDSAMYFCVRFPTGNDYYAMDYWGQGTSVTVSS
VL: NIVLTQSPASLAVSLGQRATISCRASESVDSYGNSYMHWYQQKPGQPPKLLIYLASNLESGVPARFSGSGSRTDFTLTIDPVEADDAATYYCQQNNEDPFTFGSGTKLEIKR
Recombinant human IL-1β [4]
  Potency (IC50), MRC-5 bioassay: 0.6 nM
Recombinant human IL-1β [12]
  IC50, inhibition of IL-8 production by MRC-5 cells: 0.6 nM

B6: anti-IL-12 mAb 1D4.1 (antibody, V domains shown)
VH: EVTLRESGPALVKPTQTLTLTCTFSGFSLSKSVMGVSWIRQPPGKALEWLAHIYWDDDKYYNPSLKSRLTISKDTSKNQVVLTMTNMDPVDTATYYCARRGIRSAMDYWGQGTTVTVSS
VL: DIVMTQSPDSLAVSLGERATINCKASQSVSNDVAWYQQKPGQPPKLLIYYASNRYTGVPDRFSGSGSGTDFTLTISSLQAEDVAVYYCQQDYNSPWTFGGGTKVEIKR
Human IL-12 [13]
  Potency (IC50), PBMC assay (IL-12): 0.418 nM

B7: mouse anti-mouse IL-1α mAb 9H10 (antibody, V domains shown)
VH: QVILKESGPGILQPSQTLSLTCSFSGFSLSTYGTAVNWIRQPSGKGLEWLAQIGSDDRKLYNPFLKSRITLSEDTSNSQVFLKITSVDTEDSATYYCANGVMEYWGLGTSVTVSS
VL: SIVMTQTPKFLLVSAGDRVTITCKASQSVNHDVAWYQQMPGQSPKLLIYFASNRYTGVPDRFTGSGYGTDFTFTISTVQAEDLAVYFCQQDYSSPYTFGGGTKLEIKR
Mouse IL-1α
  IC50, in vitro potency (assay not described): 0.2 nM

B8: DVD1812SL (anti-IL12/IL18 DVD-Ig) (bispecific antibody, human IgG1, kappa)
heavy: not shown
light: EIVMTQSPATLSVSPGERATLSCRASESISSNLAWYQQKPGQAPRLFIYTASTRATDIPARFSGSGSGTEFTLTISSLQSEDFAVYYCQQYNNWPSITFGQGTRLEIKRTVAAPQSVLTQPPSVSGAPGQRVTISCSGSRSNIGSNTVKWYQQLPGTAPKLLIYYNDQRPSGVPDRFSGSKSGTSASLAITGLQAEDEADYYCQSYDRYTHPALLFGTGTKVTVLGTVAAPSVFIFPPSDEQLKSGTASVVCLLNNFYPREAKVQWKVDNALQSGNSQESVTEQDSKDSTYSLSSTLTLSKADYEKHKVYACEVTHQGLSSPVTKSFNRGEC
Human IL-18 [2]
  Potency (IC50), KG-1 bioassay (IFN-γ production): 0.04 nM
Human IL-12 [11]
  Potency (IC50), IL-12-induced IFN-γ production by PHA blast cells: 0.366 nM

B9: murine anti-hIL-1β mAb 6B12.4F6 (antibody, V domains shown)
VH: EVQLQQSGPELVKTGTSVKISCKASGYSFTGYYMHWVRQSHGKSLEWIGYISCYNGFTSYNPKFKGKATFTVDTSSSTAYIQFSRLTSEDSAVYYCARSDYYGTNDYWGQGTTLTVSS
VL: QIVLTQSPAIMSASPGEKVTITCSASSSVSYMHWFQQKPGASPKLWIYSTSNLASGVPARFSGSGSGTSYSLTVSRMEAEDAATYYCQQRSTYPYTFGGGTKLEIKR
Recombinant human IL-1β [12]
  IC50, inhibition of IL-8 production by MRC-5 cells: 0.32 nM
Recombinant human IL-1β [14]
  IC50, MRC-5 bioassay: 0.4 nM

B10: mouse anti-mouse IL-1β mAb 10G11 (antibody, V domains shown)
VH: EVQLQQSGPELVKPGTSVKMSCKTSGYTFTSYVMHWVKQKPGQGLEWIGYIIPYNDNTKYNEKFKGKATLTSDKSSSTAYMELSSLTSEDSAVYYCARRNEYYGSSFFDYWGQGTTLTVSS
VL: DIQMTQSPASLSASVGETVTITCRGSGILHNYLVWYQQKQGKSPQLLVYSAKILADGVPSRFSGSGSGTQYSLKINSLQPEDFGSYYCQHFWSTPFTFGSGTKLEIKR
Mouse IL-1β
  IC50, in vitro potency (assay not described): 0.37 nM

B11: ABT874 (anti-human IL-12p40 mAb) (antibody, V domains shown)
VH: QVQLVESGGGVVQPGRSLRLSCAASGFTFSSYGMHWVRQAPGKGLEWVAFIRYDGSNKYYADSVKGRFTISRDNSKNTLYLQMNSLRAEDTAVYYCKTHGSHDNWGQGTMVTVSS
VL: QSVLTQPPSVSGAPGQRVTISCSGSRSNIGSNTVKWYQQLPGTAPKLLIYYNDQRPSGVPDRFSGSKSGTSASLAITGLQAEDEADYYCQSYDRYTHPALLFGTGTKVTVLG
Human IL-12 [11]
  IC50, IL-12-induced IFN-γ production by PHA blast cells: 0.005 nM
